Measurements from the nanobody polyreactivity screen of Harvey et al. (2022).

Experiment: yeast display, Sf9 membrane polyspecificity reagent, FACS + sequencing; frameworks hold sequencing errors
Method in brief: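 Galactose-induced (36–48 hours) yeast carrying a synthetic nanobody display library were exposed to 10% biotinylated, detergent-solubilized Sf9 membrane reagent at 4 °C for 1 hour. FACS followed streptavidin microbead enrichment, using low and high (top ~1%) gates for expression (anti-HA) and reagent binding (streptavidin). Colony PCR, MiSeq 2 × 250 sequencing and CDR-length filtering followed. Labels for polyreactivity reflect the gate of origin.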

| Sequence | polyreactivity (PSR sort gate) |
| --- | --- |
| QVQLVESGGGLVQAGGSLRLSCAASGRIFRYYAMGWYRQAPVKDRELVARINIGGSTYYADSVKGRFTISRDNAKNTVYLKMNSLLREDTAVYYCAAVPRPVSRTIWGDYWGEGTQVTVSS | high polyreactivity |
| QVQLVESGGGLVQAGGSLRLSCAASGRIFRYYMRWYRQAPGKERKLVAVISSGGRTKYADSVKGRFTISRDNAKNTVYLQMNILKPQDTAVYYCAARYPREAAYVFDYWGQGTLVTVSS | high polyreactivity |
| QVQLVESGGGLVQAGGSLRLSCAASGRIFRYYTMGWYRQAPGKERELVAAITSSSGSTYYADSVKGRFTISRDNAKNTVYLQMNSLKPEDTAVYYCNAVRYTTQTPKVDYGYWGQGTQVTVSS | high polyreactivity |
| QVQLVESGGGLVQAGGSLRLSCAASGRIFRYYTMGWYRQAPGKERELVATITSDGRTNYADSVKGRFTISRDNAKNTVYLQMNSLKPEDTALYYCAAVYHRSYSLQSYGYWGQGTQVTVSS | high polyreactivity |
| QVQLVESGGGLVQAGGSLRLSCAASGRIFRYYTMGWYRQEPGKERELVAAITGSGGSTYYADSVKGRFTISRDNAKTTVYLQMNSLKPEDTAVYYCAARGYLDMGYWGQGTQVTVSS | high polyreactivity |
| QVQLVESGGGLVQAGGSLRLSCAASGRIFSAYAMGWYRPAPGKERELVAAISKRGGRTYYADSVKGRFTISRDNAKNTVYLQMNSLKPEDTAVYYCNKRYHDGHELDYWGQGTQVTVSS | high polyreactivity |
| QVQLVESGGGLVQAGGSLRLSCAASGRIFSAYAMGWYRQAPGKERELVAVISSADSTNYADSVKGRFTITRDNAKNTVYLQINSLKPEDNAVYYCNARGKHRYGFRSHVGNEYWGQGTQVTVSS | low polyreactivity |
| QVQLVESGGGLVQAGGSLRLSCAASGRIFSAYVMGWNRQAPGKERELVAAISSGGTRTSYADSVKGRFTISRDNAKNTVYLQMNSLTPEDTAVYYCAAARFYRSAYGYWGQGTQVTVSS | high polyreactivity |
| QVQLVESGGGLVQAGGSLRLSCAASGRIFSAYVMGWYRQAPGKERELVAAISSGGSRTSYADSVKGRFTISRDNAKNTVYLQMNSLKPEDTAVYYCAAARFYRSAYGYWGQGTQVTVSS | high polyreactivity |
| QVQLVESGGGLVQAGGSLRLSCAASGRIFSDYAMGWSSQAPGKERELVATITSGDSTNYADSVKGRFTISRDHAKNTVYLQMNSLKPEDTAVYYCNADRFADYDYWGQGTQVTVSS | low polyreactivity |
| QVQLVESGGGLVQAGGSLRLSCAASGRIFSEYAMGWYRQAPGKERELVAAISKSGGRTYYADSVKGRFTISRDNAKNTVYLKMNSLKPEDTAVYYCNARAVYPAGYAYDYWGQGTQVTVSS | high polyreactivity |
| QVQLVESGGGLVQAGGSLRLSCAASGRIFSFNAMGWYRQAPGKERELVAAISWSTGSTFYADSVKGRFTISRDNAKNTVYLQMNSLKPEDTAVYYCAREYYYRRGFFLRGYWGQGTQVTVSS | high polyreactivity |
| QVQLVESGGGLVQAGGSLRLSCAASGRIFSFNAMGWYRQAPGKERELVAGITDSGGSTYYADSVKGRFTISRDNAKNTVYFQMNSLKPEDTAVYYCNAEWPYSRVREYFYAYDYWGQGTQVTVSS | low polyreactivity |
| QVQLVESGGGLVQAGGSLRLSCAASGRIFSFNGMGWYRQAPGKERELVAAITTSGGRTYYADSVKGRFTISRDNAKNTVYLQINSLKPEDTAVYYCAAELAWEYYWGQGTQVTVSS | low polyreactivity |
| QVQLVESGGGLVQAGGSLRLSCAASGRIFSGSVMGWYRQAPGKVRELVAGITYRDGSTYYADSVKGRFTISRDNAKNTVYFQMNSLKPEDTAVYYCNADDYNDIPYDYWGQGTQVTVSS | low polyreactivity |
| QVQLVESGGGLVQAGGSLRLSCAASGRIFSGYAMGWYIQAHGKERELVAAISSTGGTYYADSVKGRFTISRDNAKNTVYLQMNSLKPEDTAVYYFAARYRTLTKYYWGQGTQVTVSS | low polyreactivity |
| QVQLVESGGGLVQAGGSLRLSCAASGRIFSGYAMGWYRQAPGKERELVAVITSTGGSTYYADSVKGRFTISRDNAKNTVYLQMNSLKPEDTAVYYCATRGVRRYYKTMNYWGQGTQVTVSS | high polyreactivity |
| QVQLVESGGGLVQAGGSLRLSCAASGRIFSGYVKGWYRQAPGKERELVASISRGGSTNYADSVKGRFTISRDNAKNTVYLQMNSLKPEDTAVYYCNKRWFAPPPYSYVRSYDYWGQGTQVTVSS | low polyreactivity |
| QVQLVESGGGLVQAGGSLRLSCAASGRIFSHDVMGWYRQAPGKERELVAAISSSGGSTYYADSVKGRFTISRDNAKNTVYLQMNSLKPEDTAVYYCAADQWASGTDDYWGQGTEVTVSS | low polyreactivity |
| QVQLVESGGGLVQAGGSLRLSCAASGRIFSHNVMGWYRQAPGKERELVAAISGRDGSTYYADSVKGRFTISRDNAKNTVYLQMNSLKPEDTAVYYCATDTSNVEGDYWGQGTQVTVSS | low polyreactivity |
| QVQLVESGGGLVQAGGSLRLSCAASGRIFSHYAMGLYREAPGKERELVAAITGSGGITYYADSVKGRFTISRDKSKNTVFLQMISLKPEDTAVYYCAADGLSKFDYLGQGTQVTVSS | low polyreactivity |
| QVQLVESGGGLVQAGGSLRLSCAASGRIFSHYAMGWYRQAPGKEREFVAAITYSGGSTYYADSVKGRFTISRDNAKNTVYLQMNSLKPEDTAVYYCNAKGYAKYYYWGQGTQVTVSS | high polyreactivity |

| Sequence | polyreactivity (PSR sort gate) |
| --- | --- |
| QVQLVESGGGLVQAGGSLRLSCAASGRIFSIYGMGWSRQAPGKERELVAVISGSVGITYYADSVKVRFTISRDNAKNTVYLQMISLKPEDTAVYYCNAKVRRRKYDYWGQGTQVTVSS | high polyreactivity |
| QVQLVESGGGLVQAGGSLRLSCAASGRIFSKNAMGWYRQAPGKERELVAAISSRGGSTYYADSVKGRFTISRDNAKNTVYLQMNSLKPEDTAVYYCAAGNGAYNYWCRYGYWGQGTQVTVSS | high polyreactivity |
| QVQLVESGGGLVQAGGSLRLSCAASGRIFSLNTLGWYRQAPGKERELVAAINRGGRSYYADSVKGRFTISRDNAKITVNLQMNSLKPEDTAVYYCAAEVVRQGSYRYGYWGQGTQVTVSS | high polyreactivity |
| QVQLVESGGGLVQAGGSLRLSCAASGRIFSLYAMGWYRQAPGKERELVAAISWSGGTTYYADSVKGRFTISRDNAKNTVYLQMNSLKPEDTAVYYCAADTGTGLDWGQGSQVTVSS | high polyreactivity |
| QVQLVESGGGLVQAGGSLRLSCAASGRIFSLYAMGWYRQAPGKERELVATMDSNGGSTYYADSVKGRFTISRDNAKNTVYLQMNSLKPEDTAVYYCAAERYVRVWVAGILHYDYWGQGTQVTVSS | low polyreactivity |
| QVQLVESGGGLVQAGGSLRLSCAASGRIFSLYAMGWYRQAPGKERELVAVITYRGGDSTYYADSVKGRFTISRDNAKNTVYLQMNSLKPEDTAVYYCAAGQPLYQRRHSSRTYYYWGQGTQVTVSS | high polyreactivity |
| QVQLVESGGGLVQAGGSLRLSCAASGRIFSNNAMGWYRQAPGKERELVAAISWNGGRTYYADSVKGRFTISRDNAKNTVYLQMNSLKPEDTAVYYCAAGRYDYWGQGTQVTVSS | high polyreactivity |
| QVQLVESGGGLVQAGGSLRLSCAASGRIFSPYAMGWYRQAPGKERELVAAISFSAASTYYADSVKGRFTISRDNAKNTVYLQMNSLKPEDTAVYYCAADYWGQGTQVTVSS | high polyreactivity |
| QVQLVESGGGLVQAGGSLRLSCAASGRIFSPYAMGWYRQAPGKERELVAAISGRGGRTYYADSVKGRFTISRDNAKNTVYLQMNSLKPEDTAVYYCNRVVSGYPGSDYWGQGTQVTVSS | high polyreactivity |
| QVQLVESGGGLVQAGGSLRLSCAASGRIFSPYTMGWYRQAPGKERELVAAINERGTSTYYADTVKGRFSISRDNAKNTVYLQKNSLKPEDTAVYYCAARVRQRRYGTTSGGYDYWGQGTQVTVSS | high polyreactivity |
| QVQLVESGGGLVQAGGSLRLSCAASGRIFSQYAMGWYRQAPGKERELVAAISRRTGSTYYADSVKGRFTISRDNAKNTVYLQMNSLKPEDTAVYYCNKARLGWSYRQDDYLGQGTQVTVSS | high polyreactivity |
| QVQLVESGGGLVQAGGSLRLSCAASGRIFSRNAMGWYRQAPGKEREFVAAISRRGTSTYYADSVKGRFTISRDNAKNTVYLQMNSLIPEDTAVYYCNAGGSPWYKPVYYRALYDYWGQGTQVTVSS | high polyreactivity |
| QVQLVESGGGLVQAGGSLRLSCAASGRIFSRNAMGWYRQAPGKERELVAAITSGGSTYYADSVKGRFTISRDNAKNTVYLQMNSLKPEDTAVFYCAKRLTYYSWYHRYDYWGQGTQVTVLS | high polyreactivity |
| QVQLVESGGGLVQAGGSLRLSCAASGRIFSRYAMGWYRQAPGKERELVAAINKSGGSTYYADSVKGRFTISRDNAKNTVYLQMNSLKPEDTAVYYCATDDPVYDYDYWGQGTQVTVSS | high polyreactivity |
| QVQLVESGGGLVQAGGSLRLSCAASGRIFSRYAMGWYRQAPGKERELVAAISRRGGSTYYADSVKGRFTISRDNAKNTVYLQMNSLKPEDTAVYYCAADFSPYYDLATEISDYWGQGTQVTVSS | high polyreactivity |
| QVQLVESGGGLVQAGGSLRLSCAASGRIFSRYAMGWYRQAPGKERELVAAITQSGTSTYYADSVKGRFTISRDNAKNTVYLQMKSLKPEDTAVYYCNAYRQYRYDYWGQGTQVTVSS | low polyreactivity |
| QVQLVESGGGLVQAGGSLRLSCAASGRIFSRYAMGWYRQAPGKEREMVAAIRSNGGRTYYADSVKGRFTISRDNAKNTVYLQMNSLKPEDTAVYYCAAAGGGKVSYRDYDYWGQGTQVTVSS | high polyreactivity |
| QVQLVESGGGLVQAGGSLRLSCAASGRIFSRYAMGWYRQAPGTERELVAAINKSGGSTYYADSVKGRFTISRDNAKNTVYLQMNSLKPEDTAVYYCNAVYYWYKGDYWGQGTQVTVSS | high polyreactivity |
| QVQLVESGGGLVQAGGSLRLSCAASGRIFSRYAMGWYRQAPGTERELVAAISASGGSTYYADSVKGRFTISRDNAKNTVYLQMNSLKPEDTAVYYCNAYQTSTTLFPGYGYWGQGTQVTVSS | low polyreactivity |
| QVQLVESGGGLVQAGGSLRLSCAASGRIFSRYTMGWYRQAPGKERELVAAISSRGGSTYYADSVKGRFTISRDNAKNTVYLQMNSLKPEDTAVYYCNTPSYSGSSPYDHWGQGTQVTVSS | high polyreactivity |
| QVQLVESGGGLVQAGGSLRLSCAASGRIFSRYTMGWYRQAPGKERELVAGITRGGGSTYYADSVKGRFTISRDNAKNTVYLQMNSLKPEDNAVYYCNAETSYAWWHYDYWGQGTQVTVSS | low polyreactivity |
